This series concerns MS2 coat protein. Put plainly: apparent KD of MS2 coat protein; designed switch direction (-1 OFF switch, 1 ON switch): 1; higher = weaker reporter binding. The method, boiled down:
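Each step of the titration lasted 0.8–1.5 h at the lowest concentration and 10–20 min at the highest. The protein, SNAP-549-labelled MS2 coat protein, went from 0.7 or 1.5 nM doubling to 3 µM over RNA switches transcribed on Illumina chips by stalled E. coli RNA polymerase. Normalised cluster fluorescence was curve-fitted, and the per-design median over clusters is given as apparent KD.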

Where [1] appears, read: input ligand: microRNA oligo, concentration not stated.
Where [2] appears, read: Eterna round: R95, input ligand: FMN 200 uM.
Where [3] appears, read: Eterna round: R95, input ligand: microRNA oligo, concentration not stated.
[4] abbreviates: Eterna round: R95, input ligand: none.

As for “AAGAUGGUUGUAGGAUAUCCACCACUGAAGGGUGGAGAAGGGCACUCCAACAUGAGGAUCACCCAUGUACUACAAGUAGCAUCG [Eternabot solution 26] (Eterna round: R96, puzzle: Same State NG 1)”, the “apparent KD of MS2 coat protein” value reads like this: (input ligand: FMN 200 uM) 0.267 µM; under setting [1], 0.188 µM; (input ligand: none) 0.24 µM.

Consider “AAGCUGUGUGUAUGGUCAUUGUCAACGGUACAUGAGGAUCACCCAUGUAGCAUUAACCAUCCGACUCUGUUGGAGGU [high scoring solution 6] (Eterna round: R96, puzzle: Sensor for hsa-mir-208a)”, for which the “apparent KD of MS2 coat protein” value came to 0.0587 µM (input ligand: FMN 200 uM), 0.0407 µM under setting [1] and 0.0517 µM (input ligand: none).

Take “AAGUGGUCCCAAGGAUAUGUCCAAAAGAAGGGCUGAGACAUGAGGAUCACCCAUGUCUCGGCGGUACAGAAGGUGGAGACAGGU [Solaena] (Eterna round: R96, puzzle: Same State NG 2)”: the “apparent KD of MS2 coat protein” value runs as follows: (input ligand: FMN 200 uM) 0.0105 µM; under setting [1], 0.01 µM; (input ligand: none) 0.014 µM.

As to “AAUUAAGAUCAAGGAUAUCACGUCGUUUAGACGUGAGAAGGUGAUAAUUACAUGAGGAUCACCCAUGUAUAACAUGAAUUAAUU [SSNG1/9-B3] (Eterna round: R96, puzzle: Same State NG 1)”, the “apparent KD of MS2 coat protein” value was 0.0255 µM (input ligand: FMN 200 uM), 0.0275 µM under setting [1] and 0.0321 µM (input ligand: none).

For “AAUUAAGAUCGAGGAUAUCACGUCGUUUAGACGUGAGAAGGCGAUCAUAACAUGAGGAUCACCCAUGUAUUACAUGAAUUAAUU [SSNG1/4-B3] (Eterna round: R96, puzzle: Same State NG 1)”, the “apparent KD of MS2 coat protein” value amounted to 0.0206 µM (input ligand: FMN 200 uM), 0.0266 µM under setting [1] and 0.0291 µM (input ligand: none).

In the case of “AAUUAUUUACAUGAGGAUCACCCAUGUAUUAUUACAAGCUUUAUCCUCGUUUUAUUUAUUAUUAUUAUUAUUAUUAA [benbell_design1] (puzzle: Sensor for hsa-mir-208a version 2)”, the “apparent KD of MS2 coat protein” value is, setting by setting: under setting [2], 0.369 µM; under setting [3], 0.033 µM; under setting [4], 0.326 µM.

Regarding “AAUUCACGAGCACAGGAUAUGCUUGCCAACACAUGAGGAUCACCCAUGUCGGGCUACUAAUAAGAGCAGAAGGGUGACUCAUGAU [Esticece] (puzzle: Same State 2)”, the “apparent KD of MS2 coat protein” value runs as follows: under setting [2], 0.0366 µM; under setting [3], 0.342 µM; under setting [4], 0.0582 µM.

Take “AAUUUAAUACAUGAGGAUCACCCAUGUAAAUUAAUUAAGAUCAAGGAUAUCAGCUCGAAUAGAGCUGAGAAGGUGAUCACAUGU [SSNG3/19-A1] (Eterna round: R96, puzzle: Same State NG 3)”: the “apparent KD of MS2 coat protein” value under setting [1] worked out at 0.244 µM.

For the sequence “AAUUUAAUACAUGAGGAUCACCCAUGUAAAUUAAUUAAGAUCAAGGAUAUCAGCUCGUUUAGAGCUGAGAAGGUGAUCACAUGU [SSNG3/19-A3] (Eterna round: R96, puzzle: Same State NG 3)”, the “apparent KD of MS2 coat protein” value under setting [1] was 0.163 µM.

With “ACAAGCUUUUUAGGAGAGAAAGGUGGGAUACAUGAGGAUCACCCAUGUAUUGUUGUUAAUAGUGGACCUCGUCUUAU [JR_SHM208A_Sub083] (puzzle: Sensor for hsa-mir-208a)”, the “apparent KD of MS2 coat protein” value came out at 0.0265 µM under setting [2], 0.0157 µM under setting [3] and 0.0292 µM under setting [4].

As to “ACAUAGGGAACAGGAUAUGGGAAAAUUCCCUACAUGAGGAUCACCCAUGUCCGUAGGGACAACAUCCAGAAGGGUUACCACAUA [Eternabot solution 1] (Eterna round: R96, puzzle: Same State NG 2)”, the “apparent KD of MS2 coat protein” value came to 0.211 µM (input ligand: FMN 200 uM), 0.549 µM under setting [1] and 0.656 µM (input ligand: none).

For “ACAUGAAAUUCAGGAUAUUUUGUACCUACAUGUGACAUGAGGAUCACCCAUGUGGUAAGUAUGAGAAAGAAGGGAAAGAUAUGU [Equivalence 10 - Jieux - Same State NG 2] (Eterna round: R96, puzzle: Same State NG 2)”, the “apparent KD of MS2 coat protein” value by setting is: (input ligand: FMN 200 uM) 0.0254 µM; under setting [1], 0.0419 µM; (input ligand: none) 0.0456 µM.

With “ACAUGAGACAAAGGAUAUGGUGUACCUACAUGUGACAUGAGGAUCACCCAUGUGGUAAGUAUGACUCAGAAGGUUGAGAUAUGU [Equivalance 74 - Jieux - Same State NG 2] (Eterna round: R96, puzzle: Same State NG 2)”, the “apparent KD of MS2 coat protein” value turned out to be 0.037 µM (input ligand: FMN 200 uM), 0.203 µM under setting [1] and 0.299 µM (input ligand: none).

For “ACAUGAGACCAAGGAUAUCUUGUACCUACAUGUGACAUGAGGAUCACCCAUGUGGUAAGUAUGAGGGAGAAGGUGGAGAUAUGU [Equivalence 25 - Jieux - Same State NG 2] (Eterna round: R96, puzzle: Same State NG 2)”, the “apparent KD of MS2 coat protein” value runs as follows: (input ligand: FMN 200 uM) 0.0262 µM; under setting [1], 0.0188 µM; (input ligand: none) 0.0367 µM.

For the sequence “ACAUGAGACCAAGGAUAUGUUGUACCUACAUGUGACAUGAGGAUCACCCAUGUGGUAAGUAUGAGGCAGAAGGUGGAGAUAUGU [Equivalence 26 - Jieux - Same State NG 2] (Eterna round: R96, puzzle: Same State NG 2)”, the “apparent KD of MS2 coat protein” value (input ligand: FMN 200 uM) came to 0.0265 µM, the “apparent KD of MS2 coat protein” value under setting [1] was 0.0442 µM and the “apparent KD of MS2 coat protein” value (input ligand: none) came to 0.0593 µM.

On to “ACAUGAGACUUAGGAUAUGUUGUACCUACAUGUGACAUGAGGAUCACCCAUGUGGUAAGUAUGACACAGAAGGAAGAGAUAUGU [Equivalance 67 - Jieux - Same State NG 2] (Eterna round: R96, puzzle: Same State NG 2)”, for which the “apparent KD of MS2 coat protein” value under setting [1] was 0.0189 µM.

Turning to “ACAUGAGAGAUAGGAUAUCGUGUACCUACAUGUGACAUGAGGAUCACCCAUGUGGUAAGUAUGAGCGAGAAGGAUCCGAUAUGU [salish99_SSNG2_r04_1001] (Eterna round: R96, puzzle: Same State NG 2)”, the “apparent KD of MS2 coat protein” value worked out at 0.0186 µM (input ligand: FMN 200 uM), 0.0386 µM under setting [1] and 0.0664 µM (input ligand: none).

With “ACAUGAGAGGGAGGAUAUUUUGUACCUACAUGUGACAUGAGGAUCACCCAUGUGGUAAGUAUGAGAAAGAAGGCCCAGAUAUGU [Equivalence 18 - Jieux - Same State NG 2] (Eterna round: R96, puzzle: Same State NG 2)”, the “apparent KD of MS2 coat protein” value stood at 0.0174 µM (input ligand: FMN 200 uM), 0.0189 µM under setting [1] and 0.0274 µM (input ligand: none).

On to “ACAUGAGGAUCACCCAUGUAGGCUCAGGAAACUGUGCCACAUGAGGAUAUGGAUCCUAAUUGGAUCCAGAAGGCAUGUAUUAUU [Fiskers NG3ss - 22] (Eterna round: R96, puzzle: Same State NG 3)”, for which the “apparent KD of MS2 coat protein” value reads like this: (input ligand: FMN 200 uM) 0.112 µM; under setting [1], 0.0416 µM; (input ligand: none) 0.0661 µM.

“ACCCAAAGUAUAUGGGAACAGGCUUUUUAACAUGAGGAUCACCCAUGUACUCGUCUUAUAAGCAGUCGAAAGACUGC [Sensor 100 - 2] (puzzle: Sensor for hsa-mir-208a)”: the “apparent KD of MS2 coat protein” value runs as follows: under setting [2], 0.487 µM; under setting [3], 0.018 µM; under setting [4], 0.906 µM.

Turning to “ACGCUCCAUGGAGGAUAUGGGCCUGCCCGGGAUACCGGGCCUAACACAUGAGGAUCACCCAUGUCCCAGAAGGCCGCUGGAGCC [Atgeenbite] (Eterna round: R96, puzzle: Same State NG 2)”, the “apparent KD of MS2 coat protein” value runs as follows: (input ligand: FMN 200 uM) 0.0192 µM; under setting [1], 0.0623 µM; (input ligand: none) 0.0987 µM.

For the sequence “ACGUGGAUAUCACAGGAUAUACUCACAACUACAUGAGGAUCACCCAUGUAGCGGUAUUCCGGUGCGUAGAAGGGUGAUGGACCAC [Same State 2 - Mod of Artece v.3] (puzzle: Same State 2)”, the “apparent KD of MS2 coat protein” value under setting [2] was found to be 0.0121 µM, the “apparent KD of MS2 coat protein” value under setting [3] amounted to 0.012 µM and the “apparent KD of MS2 coat protein” value under setting [4] is 0.0114 µM.

In the case of “ACUCAGUACAAUUUAGAUCUACAUGAGGAUCACCCAUGUACUGAGGAUAUCAGCUCGAUUAGAGCUGAGAAGGCAGUUGUACUA [SSNG3/10-A2] (Eterna round: R96, puzzle: Same State NG 3)”, the “apparent KD of MS2 coat protein” value (input ligand: FMN 200 uM) amounted to 0.0823 µM, the “apparent KD of MS2 coat protein” value under setting [1] came to 0.161 µM and the “apparent KD of MS2 coat protein” value (input ligand: none) is 0.125 µM.

Take “AGAAAACAUGAGGAUCACCCAUGUAGAAAUAUGGGAGGAUAUACAAAGACGAAAGUCAAGGUAGAAGGCCUAAAGA [Mat - Same State 1 - Meechl mod - D124] (Eterna round: R96, puzzle: Same State 1)”: the “apparent KD of MS2 coat protein” value is, setting by setting: (input ligand: FMN 200 uM) 0.0196 µM; under setting [1], 0.0704 µM; (input ligand: none) 0.0987 µM.

“AGAAGACAUGAGGAUCACCCAUGUAUGAAAAGUACAGGAUAUCAUGAGCUAAGGUGCGCAUGAGAAGGGUGAAAAU [Aatle] (puzzle: Same State 1)”: the “apparent KD of MS2 coat protein” value reads like this: under setting [2], 0.549 µM; under setting [3], 0.166 µM; under setting [4], 0.0703 µM.

Consider “AGACAUGAGGAUCACCCAUGUAUACACUAUAUCAGUGUAACAUAGGAUAUCCACCGCCAUGCUGUGGAGAAGGAUGAAACGGGC [Raerlaan] (Eterna round: R96, puzzle: Same State NG 3)”, for which the “apparent KD of MS2 coat protein” value (input ligand: FMN 200 uM) turned out to be 0.211 µM, the “apparent KD of MS2 coat protein” value under setting [1] was determined as 0.0659 µM and the “apparent KD of MS2 coat protein” value (input ligand: none) is 0.108 µM.

“AGAGAACAUGAGGAUCACCCAUGUAAGAGAAGUGUAGGAUAUGUGAGGAGCAGAGGAGGAACAGAAGGACAUGGAG [JR_SS!_Sub072] (puzzle: Same State 1)”: the “apparent KD of MS2 coat protein” value runs as follows: under setting [2], 0.0346 µM; under setting [3], 0.0353 µM; under setting [4], 0.0538 µM.
